Measured values from US11485792B2, “Antibodies, uses thereof and conjugates thereof” (Polytherics Limited, priority 2016, dated 2022).

Legend:
[1] = Heat stress test with SEC analysis of aggregation; assay type: physicochemical
Description: Antibody samples (0.5 mg/mL in PBS) were incubated at 75° C. for 30 min followed by incubation in an ice-bath for 5 min prior to being analysed for their extent of aggregation. Analysis of antibody solutions was carried out by Size Exclusion Chromatography (SEC) and by turbidity measurements.
SEC was performed using a TOSOH Bioscience TSK gel Super SW 3000 column. UV absorbance at 280 nm was monitored during an isocratic elution with a 0.2 M Potassium phosphate buffer, pH 6.8 (0.2 M potassium chloride and 15% isopropanol). The elution times and number of peaks indicate whether the sample contains aggregated, degraded or native antibody. The % area under the curve (Abs280) was used to determine the quantity of each species present in the SEC analysis.

[2] = Fluorescence-based thermal-shift assay (Sypro Orange); assay type: physicochemical
Description: Antibody was diluted to 1.5 mg/mL with DPBS, pH 7.1-7.5, and the concentration determined by measuring OD at 280 nm using a Nanodrop instrument. SEC analysis was carried out prior to thermal-shift analysis to confirm that over 99% of each antibody was present in their native form.
An RT-PCR instrument (StepOnePlus, Applied Biosystems) was set-up for a fluorescence-based thermal-shift assay using Sypro Orange dye as a fluorescent reporter. The assay was set-up in a PCR 96 well plate with five replicates per antibody sample and a final reaction volume of 20 μL per well. 13.5 μL of DPBS was pipetted in each well followed by the addition of 4 μL of antibody. […] Fluorescence data was collected throughout the temperature ramp, using an excitation filter at 470 nm and emission filter at 610 nm. […] The melting curves generated by the instrument software during the thermal unfolding of the antibodies result from the plotting of fluorescence vs. temperature. The melting temperature (Tm), is the temperature at which half of the antibody molecules are unfolded, (indicated by a 50% increase in fluorescence), and can be determined from the inflection point of the melting curve. The Tms are conventionally calculated by plotting a derivative plot. This is the change in fluorescence divided by the […] (the change rate) plotted on the Y-axis versus temperature on the X-axis. […]

PC-3 cells = experiment: In vitro cell viability assay (CellTiter Glo), PC-3 (PSMA-negative control); assay type: cell-based; details: Example 16; PSMA-negative PC-3 (negative control), 96 h
Description: Loss of tumour cell viability following treatment with cytotoxic drugs or ADCs in vitro can be measured by growing cell lines in the presence of increasing concentrations of drugs or ADCs and quantifying the loss of proliferation or metabolic activity using CellTiter Glo® Luminescence reagent (Promega Corp. Technical Bulletin TB288; Lewis Phillips G. D, Cancer Res 2008; 68:9280-9290). The protocol describes cell seeding, drug treatment and determination of the cell viability in reference to untreated cells based on ATP synthesis, which is directly related to the number of cells present in the well.
PSMA-positive LNCaP (clone FGC) and C4-2 cells, as well as PSMA-negative PC-3 cells were detached with TrypLE and resuspended in complete medium. Cells were counted using disposable Neubauer counting chambers and cell density adjusted to 10×10^4 cells/mL for LNCaP, 2×10^4 cells/mL for C4-2 and 1×10^4 cells/mL for PC-3 respectively. […]
The cell viability assay was carried out using the Cell-Titer Glo® Luminescence reagent, as described by the manufacturer's instructions, (Promega Corp. Technical Bulletin TB288; Lewis Phillips G. D, Cancer Res 2008; 68:9280-9290). Luminescence was recorded using a plate reader (e.g. Molecular Devices Spectramax M3 plate reader), and data subsequently analysed using a four parameter non-linear regression model. […]

[3] = post stress test: 0.5 mg/mL in PBS, 75° C. for 30 min, then ice-bath 5 min, SEC

| Molecule | Ab in aggregated form (%) [1, 3] [%] | Ab in native conformation (%) [1, 3] [%] | stability in heat stress SEC analysis (in words) ([1]; propensity to aggregate upon heating and cooling) | Tm1 (° C.) ([2]; first transition peak: unfolding of the CH2 and Fab domains) [°C] | Tm2 (° C.) ([2]; second transition peak: unfolding of the CH3 domain) [°C] | IC50 (PC-3 cells) [µM] |
| --- | --- | --- | --- | --- | --- | --- |
| AB-P2: prior art anti-PSMA antibody, heavy and light chain SEQ ID No 37 and 38 (antibody, V domains shown) VH: MELGLRWVLLVALLRGVQCQVQLVESGGGVVQPGRSLRLSCAASGFTFSNYVMHWVRQAPGKGLEWVAIIWYDGSNKYYADSVKGRFTISRDNSKNTLYLQMNSLRAEDTAVYYCAGGYNWNYEYHYYGMDVWGQGTTVTVSS VL: MRVPAQLLGLLLLCFPGARCDIQMTQSPSSLSASVGDRVTITCRASQGITNYLAWFQQKPGKAPKSLIYAASSLQSGVPSKFSGSGSGTDFSLTISSLQPEDFATYYCQQYNSYPITFGQGTRLEIK | 100 | 0 | less stable than AB-03 | 68.9 ± 0.1 | 75.2 ± 0.1 |  |
| ADC 34 (conjugate, non-natural residues) heavy: QVQLVESGGGVVQPGRSLRLSCAASGFTFSNYVMHWVRQAPGKGLEWVAIIWYDGSNKYYADSVKGRFTISRDNSKNTLYLQMNSLRAEDTAVYYCAGGYNWNYEYHYYGMDVWGQGTTVTVSS light: DIQMTQSPSSLSASVGDRVTITCRASQGITNYLAWFQQKPGKAPKSLIYAASSLQSGVPSKFSGSGSGTDFSLTISSLQPEDFATYYCQQYNSYPITFGQGTRLEIK |  |  |  |  |  | > 0.05 |
